This note sets out measurements from the nanobody polyreactivity screen of Harvey et al. (2022).

The nature of the data set: yeast display, Sf9 membrane polyspecificity reagent, FACS + sequencing; frameworks hold sequencing errors. Summed up: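 After 36–48 hours of galactose induction, yeast (Saccharomyces cerevisiae BJ5465) displaying a synthetic nanobody library were stained at 4 °C for 1 hour with 10% biotinylated, detergent-solubilized Sf9 membrane reagent. Streptavidin microbeads enriched the stained cells before FACS sorting into low and high (top ~1%) gates on anti-HA and streptavidin fluorescence. Each clone's polyreactivity label reflects its gate of origin.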
In the case of “QVQLVESGGGLVQAGGSLRLSCAASGITFVTYAMGWSRQAPGKERELVADISWRGTSTNYADSVKGRFTISRDNAKNTVYFQMISLKPEDTAVYYCAAKQTYTRLHYLGPSVWDNYDYWGQGTQVTVSS”, the “polyreactivity (PSR sort gate)” value was “high polyreactivity”.
Next, “QVQLVESGGGLVQAGGSLRLSCAASGSTFYGYAMGWYRQAPGKERELVAAISGGGSTNYADSVKGRFTISRDNAKNTVYLQMNSLKPEDTAVYYCAARTTVYRRYGRNYWGQGTQVTVSS”: “high polyreactivity”; “QVQLVESGGGLVQEGGSLRLSCAASGITFLQYAMGWYRQAPGKERELVAVISRGSRTYYADSVKGRFTISRDNAKNTVYLQMNCLQPDDTAVYYCAAVRGLALGYDYWGQGTQVTVSS”: “high polyreactivity”; “QFQLVESGGGLVQAGGSLRLSCAASGRIFGPYAMGWYRQAPGKERELVASISGGGSTNYADSVKGRFTISRDNAKNTVYLQMNSLKPEDTAVYYCAADVYYQYWGWWPYDYWGQGTQVTESS”: “low polyreactivity”.
Next, “QVQLVESGGGLVQAGGSLRLSCAASGITFLNYAMGWYRQAPGKERELVAAISWSGGRTYYADSVKGRFTISRDNGKNTVYLQMNSLKPEDTAVYYCAADRGVNSYGYWGQGTQVTVSS”: “high polyreactivity”; “QVQLVESGGGLVQAGGSLRLSCAASGITIRFYAMGWYRQAPGKERELVAAITRGGSTTYADSVKGRFTISRDNAKNTVYLQMNSLKPEDTAVYYCNAQYQSGYYTSYPDRFDYWGQGTQVTVSS”: “low polyreactivity”.
The value for “QVQLVESGGGLVQAGGSLRLSCAASGLTFSDYAMGWYRQAPGKEREFVAAITRNGASTRYADSVKGRFTISRDNAKNTVYLQMNRLKPEDTAVYYCSTDVGFGRKQRPHRPGYGYWGQGTQVTVSS” was “low polyreactivity”; that for “PVQLVESGGGLVQAGGSLRLSCAASGRTFNSYPMVWYRQAPGKERELVADITSSGGSTYADSVKGRFTISRDNAKNTVYLQMNSLKPEDTAVYYCAVDNISNWAVENDYWGQGTQVTVSS” was “low polyreactivity”; that for “QVQLVESGGGLVQAGGSLRLSCAASGRIFWGNALGWYRQAPGKVRELVAAITRRGGTTFYADSVKGRFTISRDNAKNTVYLQKNSLKPEDTAGYYCAARRYCQYDGYDSGGQGTQVTVSS” was “high polyreactivity”.
As to “QVQLVESGGGLVQAGGILRLSSAASGFTFSRNAMGWYRQAPGKERELVASISGRGGRTYYADSVKGRFTISRDNAKNTVSLQMNSLKPEDTAVYDCAARWRQRKSVRYGQQGYDYWGQGTQVSVSS”, the “polyreactivity (PSR sort gate)” value was “high polyreactivity”.
Turning to “QVQLVESGGGLVQAGGSLRLSCAASGRICGVYAMGWYRQAPGKERELVAAITARGGSTYYADSVKGRFTISRDNAKNTVYLQMNSLKPEVTAVYYCATRLYKRTRTITYGYWGQGTQVTVSS”, the “polyreactivity (PSR sort gate)” value is listed as “high polyreactivity”.
The value for “QVQLVESGGGLVQAGGRLRLSCAASGRTFSKYPLGWYRQAPGKERELVAAITSGGGTYYADSVKGRFTFSRDNAKNPVYLQMHSRKPEDTAVYYCAVSGTTVSTYDYWGQCTQVTVSS” was “low polyreactivity”; that for “QVHLVESGGGLVQAGGSLRLSCAASGFTFGINAMGWYRQAPGKERELVAAINQSGDRTYYADSVKGRFTISRDNAKNPVYLELNSLKPDDTAVYYCAADTSYWYDYYIDYVGYYYWGQGTQVTVSS” was “high polyreactivity”.
“QVQLVESGGGLVQAGVSLRLSCSASGRTFSGYAMGWYRQAPGKERELVAAISGGTSTNYADSVKGRFTISRDNAKNSVYLPMNSLKPEDTAVYYCNTDVPDPYWAYWTGGYDYWGQGTHVTVSS”: the “polyreactivity (PSR sort gate)” value is recorded as “low polyreactivity”.
The value for “QVQLVESGGGLVQAGGSLRLSCAASGRTFKKYAMGWYRQAPGKERELVAAITGSGGSTYYADSVKGRFTISRDNAKNTVYLQMNSLKPEDTAVYYCAAEVVAQMNYWGQGTQVTVSS” was “low polyreactivity”.
Next, “QVQLVDSGGGLVQAGGRLRLSCAASGRTFSVNAMGWYRQAPGKERELVAAIRWRAGSTYYADSVKGRFTISRDNAKNTVYLQMNSLKPEDTAVYYCNAVTYGGRTLFPYDYWGQGTQVTVSS”: “high polyreactivity”; “QVQLVESGGGLVQAGGSLRLSCADSGGTFESYAMGWYRQAPGKERELVAAITGRGGRTYYADSVKGRFTISRDNAKNTVYLQRNSLKPEDTAVYYCAARSPPRGYSRILDYWGQGTQVTVSS”: “high polyreactivity”.
The value for “QVQLVESGGGLVHAGGSLRLSCAASGRTLGGYAMGWYRQAPGKERELVAAISWNGGSTYYADSVKVRFTISRDNAKNTVYFQMNCLKPEDSAVYYCARVYSGPKAGAYDYWGQGTQVTVSS” was “high polyreactivity”.
Regarding “QVQLVESGGGLVQAGGSLRLSCAASGITFVGNAMGWYRQAPGKERELVAGIRGNGGSTYYADSVKGRFTISRDNAKYTVYLQMNSLKPEDTAVYYCAAAAYYADFDYWGQGTQVTVSS”, the “polyreactivity (PSR sort gate)” value is on record as “low polyreactivity”.
Regarding “QVQLVESGGGLVQAGGSLRLSCAASGSIFRGYAMGWYRQAPGKGRELVAAISWSGASTYYADSVKGRFTISRDNAKNTVYLQMNSLKPEDTAVYYCAAVQWTGYPFDYWGQGTQVTVSS”, the “polyreactivity (PSR sort gate)” value is on record as “high polyreactivity”.
The value for “QVQLVESGVGLVQAGGILRLSCAASGFIFCQYSMGWYRQAPWKERELVAAISSVGTTNYADSVKGSFTISRDNAKNTVYLQMNSLKPEDTAVYYCNADSLVEYWDYDYWGQGTQVTVSS” was “low polyreactivity”; that for “QVQLVESGGGLVQAGGSLRLSCAASGRTFPRYAMGWYRQAPGKERELVAGISWSGGRTYYADSVKGRFTISRDNAKNTVYLQMNSLKPEDTAVYYCAVVSKNLSYRTTFYYWGQGTQVTVSS” was “high polyreactivity”.
Next, “QVQLVESGGGLVQAGGSLRLSCAASGITFYGYAMGWYRPAPGKERELVARITISGRTNYADYVKGRFTISRDNAKNTVYLQMNSLKPEDTAVYYCATLVHWSYPYYYWGQGTQVTVSS”: “high polyreactivity”; “QVQLVESGGGLVQAGGSLRLSCAASGRTLDWNAMGWYRQAPGKERELVAAISWSGDSTYYADSVKGRFTISRDNAKNTVYLQMNSLKPEDTAVYYCDARYGRSWGRGYGYWGQGTQVTVSS”: “low polyreactivity”; “QVQLVESGGGLVQAGGSLRLSWAASGFTFTPYAMGWYRPAPGKEREFVAAISQRGTSTFYADSVKGRFTISRDNAKHTVYLQMNSLKPEDTAVYYCAKPYRQYTSAYYNTYNYWGQGTEVTVSS”: “high polyreactivity”.
Turning to “QVQLVESGGGLVQAGGSLRLSCAASGSTFSGNAMGWYRQAPGKERELVAAISQSGGSTYYADSVKGRFTISRDNAKNTVYLQMNSLKPEDTAVYYCNRLYYFLARRMDSWGQGTQVTVSS”, the “polyreactivity (PSR sort gate)” value is “high polyreactivity”.
The value for “QVQLVESGGGLVQAGGSLRLSCAASGRTFRDNAMGWYRQAPGKERELVAAISWSGGSTYYADSVKGRFTISRDNAKNTVYLQMNSLKPEDTAVYYCAASGYYRYTPFRYDHWGQGTQVTVSS” was “low polyreactivity”; that for “QVQLVESGGGLVQAGGSLRLSCAASGRIITRYAMGWYRQAPGKERELVAAISSGGSTYYADSVKGRFTISRDNAKNTVYLQMNSLKPEDTAVYYCARGWSGAYAGGYWGQGTQVTVSS” was “high polyreactivity”.
The value for “QVQLVESGGGLVQAGGSLRLSCAASGRIFSSYAMGWYRQAPGKERELVAGITRGGSTYADSVKGRFTISRDNAKNTVYLQMNSLKPEDTAVYYCAADALIATPSWGKYNYWGQGTQVTVSS” was “high polyreactivity”; that for “QVQLVESGGGLVQAGGSLRLSCAASGSIFRTYVMGWYRQAPGKERELVATIDSTSGSTYYADSVKGRFTISRDNAKNTVYLQMNSLKPEDTAVYYCNVLVYYYYVVKSTYRWYDYWGQGTQVTVSS” was “high polyreactivity”.
The value for “QVQLVESGGGSVQAGGSLRLSCAASGSIFRANAMGWYRQAPGKERELVAAITANGGSTYYADSVKGRFTISRDNAKNTVYLQMNSLKPEDTAVYYCNNARVRGARFDYWGQGTQVTVSS” was “high polyreactivity”.
As for “QLQLVESGGGLVQAGGSLRLSCAASGRTFVYNVMGWYRQAPGKERELVAAISSGGSTNYADSVKGRFTNSRDNAKNTVYLQMNRLKPEDSAVYYCNAGTLNYRYRWGHYYDSWGQGTQVTVSS”, the “polyreactivity (PSR sort gate)” value is recorded as “low polyreactivity”.
In the case of “QVQLVESGGGLVQAGASLRLSCAASGRIFSRNTMGWSRQAPGKECEFVAAISQSGGRTYYADSVKGRFTISRDNAKNTVYLQMNSLKPEDTAVYYCNAQFARSSGFNYWGQGTQVTVSS”, the “polyreactivity (PSR sort gate)” value is on record as “high polyreactivity”.
For “QVQLVESGGGLVQAGGSLRLSCAASGSIFDYYAMGWYRQAPGKERELVAAIRRIGGITYYADSVKGRFTISRDNAKNTVYLQMNSLKPEDTAVYYCNVLVKHSTTTYSTYDYWGQGTQVTVSS”, the “polyreactivity (PSR sort gate)” value is “high polyreactivity”.
The value for “QVQLVESGGGLVQAGGSLRLSCAASGNTLAKYAMGWYRQAPGKERELVAAISWSGGRTFYADSVKGRFTISRDNAKNTVYLQMNSLKPEDSAVYYCNKVKGQSFSSYGYWGQGTQVTVSS” was “high polyreactivity”; that for “QVQLVESGGGLVQAGGSLRLSCAASGIIFTSNTMGWYRQAPGKVREFVASINWNGSSTYADSVKGRFTISRDNAKYTVYLQMNSLKPEDTAVYSCNADYNRNSVQFSLYDYWGQGTQVTVSS” was “low polyreactivity”.
The value for “QVQLVESGGGLVQAGGSLRLSCAASGFTFVYNAMGWYRQAPGKERELVAAITSGGNTYYADSVKGRFTISRDNAKNTVYLQMNSLKPEDTAVYYCAKRGYVRYYAYDYWGQGTQVTVSS” was “high polyreactivity”; that for “QVQLVESGGGLVQAGGSLRLSCAASGLTFPPNAMGWYRQAPGKEREFVAVISSGGGSTYYADSVKGRFTISRDNAKNTVYLQMNSLKPEDTAVYYCNTYYWYSGSPYDYWGQGTQVTVSS” was “low polyreactivity”; that for “QVQLVESGGGLVQAGGSLRLSCAASGLTFRANAMGWYRQAPGKERELVAAISWRGGGTYYADSVKGRFTISRDNAKNTVYLQMNSLKPEDTAVYYCDAKTQNAYYWGQGTQVTVSS” was “low polyreactivity”.
The value for “QVQLVESGGGLVQAGGSLRLSCAASGLTSSGNAMGWYRQAPGKERELVAAISWKAGSTYYADSVKGRFTISRDNAKNTVYLQMNSLKPEDTGVYYCAATLWSKTGYDYWGQGTIVTVSS” was “low polyreactivity”.
